For this test, the target named is Mouse FGFR4/β-klotho complex co-expressed in rat L6 myoblast cells (mouse) (UniProt Q03142). Briefly: cell-based or functional assay.

The values below come from patent US20150291677A1.

Chain of FGF19 (fibroblast growth factor 19, reference or wild type sequence) (O95750 23-216 limits assumed): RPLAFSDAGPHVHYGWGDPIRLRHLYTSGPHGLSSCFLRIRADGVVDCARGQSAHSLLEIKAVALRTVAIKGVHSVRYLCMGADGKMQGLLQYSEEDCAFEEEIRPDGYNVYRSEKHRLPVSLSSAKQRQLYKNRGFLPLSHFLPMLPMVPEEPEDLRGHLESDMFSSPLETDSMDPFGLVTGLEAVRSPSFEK
Chain of Mouse FGFR4/β-klotho complex co-expressed in rat L6 myoblast cells (mouse) (Q03142 17-799, chain 1 of 2): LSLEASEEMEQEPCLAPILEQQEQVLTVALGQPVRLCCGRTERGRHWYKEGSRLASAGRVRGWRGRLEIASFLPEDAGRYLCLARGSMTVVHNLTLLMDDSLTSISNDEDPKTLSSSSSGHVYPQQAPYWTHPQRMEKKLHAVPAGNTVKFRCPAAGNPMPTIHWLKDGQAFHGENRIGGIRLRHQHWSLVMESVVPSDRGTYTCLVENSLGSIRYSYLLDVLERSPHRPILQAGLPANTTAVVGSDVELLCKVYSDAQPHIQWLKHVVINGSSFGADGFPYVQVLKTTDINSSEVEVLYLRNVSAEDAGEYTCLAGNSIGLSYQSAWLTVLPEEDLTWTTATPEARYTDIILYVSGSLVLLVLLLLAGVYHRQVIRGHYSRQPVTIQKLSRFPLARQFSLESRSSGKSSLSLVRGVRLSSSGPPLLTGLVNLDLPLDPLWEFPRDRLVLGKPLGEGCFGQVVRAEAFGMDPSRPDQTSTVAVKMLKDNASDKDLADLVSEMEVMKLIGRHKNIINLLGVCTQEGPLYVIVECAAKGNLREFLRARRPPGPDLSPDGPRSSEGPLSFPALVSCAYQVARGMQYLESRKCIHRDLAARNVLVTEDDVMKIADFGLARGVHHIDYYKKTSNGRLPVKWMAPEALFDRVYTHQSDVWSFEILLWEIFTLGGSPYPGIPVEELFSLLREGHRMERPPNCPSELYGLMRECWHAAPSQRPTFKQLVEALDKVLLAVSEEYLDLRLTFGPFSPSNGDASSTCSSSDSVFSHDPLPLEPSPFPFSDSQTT
Chain of Mouse FGFR4/β-klotho complex co-expressed in rat L6 myoblast cells (mouse) (Q99N32 whole entry, chain 2 of 2, further chain): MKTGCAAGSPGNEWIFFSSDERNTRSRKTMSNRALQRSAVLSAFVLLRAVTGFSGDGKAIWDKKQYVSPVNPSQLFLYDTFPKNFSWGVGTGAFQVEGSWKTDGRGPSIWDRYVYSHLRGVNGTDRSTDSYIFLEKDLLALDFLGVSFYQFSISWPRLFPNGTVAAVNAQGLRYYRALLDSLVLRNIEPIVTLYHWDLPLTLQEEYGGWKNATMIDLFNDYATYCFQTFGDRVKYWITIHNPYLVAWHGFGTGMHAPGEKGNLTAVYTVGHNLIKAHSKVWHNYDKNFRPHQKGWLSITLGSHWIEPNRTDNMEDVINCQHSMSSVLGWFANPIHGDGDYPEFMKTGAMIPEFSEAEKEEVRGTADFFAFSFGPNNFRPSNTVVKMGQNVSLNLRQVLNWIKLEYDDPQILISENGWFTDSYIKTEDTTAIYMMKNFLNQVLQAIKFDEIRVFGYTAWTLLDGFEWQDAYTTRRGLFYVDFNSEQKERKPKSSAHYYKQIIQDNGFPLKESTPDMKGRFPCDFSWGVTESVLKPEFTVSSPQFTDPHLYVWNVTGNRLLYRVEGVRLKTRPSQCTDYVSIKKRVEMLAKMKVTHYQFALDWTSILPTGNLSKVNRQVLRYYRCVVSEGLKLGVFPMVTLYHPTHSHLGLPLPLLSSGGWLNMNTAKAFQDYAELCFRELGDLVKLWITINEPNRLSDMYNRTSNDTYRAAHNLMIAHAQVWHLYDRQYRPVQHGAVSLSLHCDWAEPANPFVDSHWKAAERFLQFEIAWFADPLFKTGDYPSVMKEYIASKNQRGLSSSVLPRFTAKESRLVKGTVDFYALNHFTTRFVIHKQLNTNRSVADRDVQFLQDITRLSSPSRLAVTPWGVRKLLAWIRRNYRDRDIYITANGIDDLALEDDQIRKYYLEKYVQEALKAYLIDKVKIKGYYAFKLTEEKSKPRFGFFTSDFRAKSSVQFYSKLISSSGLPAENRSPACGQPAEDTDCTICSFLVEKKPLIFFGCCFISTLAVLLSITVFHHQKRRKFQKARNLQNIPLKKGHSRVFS

Consider “FGF19 (fibroblast growth factor 19, reference or wild type sequence) (from UniProt O95750 23-216) (ligand)”, for which the EC50 (pM), ELK luciferase reporter assay in L6 cells turned out to be 52.5 pM and the Emax (fold potentiation), ELK luciferase reporter assay in L6 cells (fold potentiation) was found to be 1.82.
